Assays:
[1] = biological target: T1, PsMYB306 (Paeonia suffruticosa, UniProt A0A7M3T7P1 1-327); test: EMSA; LightShift EMSA Optimization and Control Kit (Pierce); buffer, salt, pH and temperature not stated; settings: protein: recombinant; tags: His (pET28a, BamHI/HindIII); label: biotin (5' of strand 1 as printed, Bio-); blunt
[2] = biological target: T1, PsMYB306; test: competition; unlabeled competitor at 50- and 100-fold against N1; signal attenuated; LightShift EMSA Optimization and Control Kit (Pierce); buffer, salt, pH and temperature not stated; settings: protein: recombinant; tags: His (pET28a, BamHI/HindIII); label: none; blunt

T1 sequence (A0A7M3T7P1 entry or part of it): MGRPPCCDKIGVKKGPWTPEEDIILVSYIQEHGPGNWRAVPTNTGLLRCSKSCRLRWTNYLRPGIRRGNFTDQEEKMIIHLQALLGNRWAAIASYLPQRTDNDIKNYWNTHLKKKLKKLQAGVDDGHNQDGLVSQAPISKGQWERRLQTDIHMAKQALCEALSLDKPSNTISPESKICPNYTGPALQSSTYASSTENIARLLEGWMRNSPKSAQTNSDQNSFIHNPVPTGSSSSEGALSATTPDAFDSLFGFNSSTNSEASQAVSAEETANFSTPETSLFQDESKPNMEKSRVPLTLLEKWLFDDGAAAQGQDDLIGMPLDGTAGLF

B1: pPsNCED3 WT probe (dsDNA)
DNA 1: ACTTAGGATTACTAGTTAATAACTTCCTTCTT
DNA 2: AAGAAGGAAGTTATTAACTAGTAATCCTAAGT
binding result [1]: binds

B2: pPsNCED3 mutant probe (dsDNA)
DNA 1: ACTTAGGATTACTCAGCCATAACTTCCTTCTT
DNA 2: AAGAAGGAAGTTATGGCTGAGTAATCCTAAGT
binding result [1]: no binding

B3: pPsNCED3 WT cold competitor (dsDNA)
DNA 1: B1 DNA 1
DNA 2: B1 DNA 2
binding result [2]: binds

— PMC10980420, “Abscisic acid–induced transcription factor PsMYB306 negatively regulates tree peony bud dormancy release”
